One data set addresses T1, TrSqrF; SqrF WT (Thiocapsa roseopersicina, UniProt A0A1Z2RRG1).
T1 sequence (A0A1Z2RRG1 1-375): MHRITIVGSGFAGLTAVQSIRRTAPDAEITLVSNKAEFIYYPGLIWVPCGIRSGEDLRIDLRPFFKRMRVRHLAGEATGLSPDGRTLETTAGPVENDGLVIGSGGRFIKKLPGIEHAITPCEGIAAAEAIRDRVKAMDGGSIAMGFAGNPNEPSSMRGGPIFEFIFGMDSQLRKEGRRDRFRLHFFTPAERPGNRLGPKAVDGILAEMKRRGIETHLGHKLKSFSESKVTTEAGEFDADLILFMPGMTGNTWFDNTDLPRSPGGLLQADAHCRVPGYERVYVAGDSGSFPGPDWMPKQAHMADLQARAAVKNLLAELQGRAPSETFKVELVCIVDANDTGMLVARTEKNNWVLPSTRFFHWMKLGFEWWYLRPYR
Kind of data set: UV-visible absorption of purified protein; in-gel FAD fluorescence. Format: binding. The note with it: co-purified cofactor.

Substrate in data set [1]: CCCCCCCCCCC1=C(C)C(=O)C(OC)=C(OC)C1=O
The data set is described as follows: purified protein. It is filed as biochemical, Thiocapsa roseopersicina. The note with it: 200 µM sulfide, 50 mM Tris-HCl pH 8.0, 25 °C, anaerobic.

Substrate in data set [2]: CC1=C(C)C(=O)C(C)=C(C)C1=O
Kind of data set: purified protein. It is filed as biochemical, Thiocapsa roseopersicina. As to conditions: 200 µM sulfide, 50 mM Tris-HCl pH 8.0, 25 °C, anaerobic.

Consider eight molecules from paper PMC9666304, “Quinone binding site in a type VI sulfide:quinone oxidoreductase” (Applied Microbiology and Biotechnology, 2022).

A word on the Km: it is the concentration of substrate that gives half-maximal velocity. As a reminder, the kcat is the number of substrate molecules converted per active site and unit of time at saturation. What is called kcat/Km is the second-order rate constant that governs catalysis at low substrate concentration.

Turning to `Cc1cc2nc3c(=O)[nH]c(=O)nc-3n(C[C@H](O)[C@H](O)[C@H](O)COP(=O)(O)OP(=O)(O)OC[C@H]3O[C@@H](n4cnc5c(N)ncnc54)[C@H](O)[C@@H]3O)c2cc1C` [FAD, flavin adenine dinucleotide], the “UV-visible absorption of purified protein; in-gel FAD fluorescence” value on TrSqrF; SqrF WT is recorded as “Absorption maxima at these wavelengths indicated that all TrSqrF variants contained the FAD cofactor”.

B1: SqrF CTD (Thiocapsa roseopersicina) (protein)
chain: MHRITIVGSGFAGLTAVQSIRRTAPDAEITLVSNKAEFIYYPGLIWVPCGIRSGEDLRIDLRPFFKRMRVRHLAGEATGLSPDGRTLETTAGPVENDGLVIGSGGRFIKKLPGIEHAITPCEGIAAAEAIRDRVKAMDGGSIAMGFAGNPNEPSSMRGGPIFEFIFGMDSQLRKEGRRDRFRLHFFTPAERPGNRLGPKAVDGILAEMKRRGIETHLGHKLKSFSESKVTTEAGEFDADLILFMPGMTGNTWFDNTDLPRSPGGLLQADAHCRVPGYERVYVAGDSGSFPGPDWMPKQAHMADLQARAAVKNLLAELQGRAPSETFKVELVCIVDANDTGMLVARTEKNNWVLPST
notes: C-terminal alpha-helix deletion, stop codons after Thr356; N-terminal StrepII tag, expressed in T. roseopersicina FOQRON
As to B1, in “purified protein [1]”, the Michaelis constant (Km) came to 18.99 ± 0.67 µM, the kcat amounted to 4.9 ± 0.8 s⁻¹ and the specificity constant (kcat/Km) came out at 268000 M⁻¹ s⁻¹. Besides, in the data set “purified protein [2]”, the Michaelis constant (Km) was found to be 70.71 ± 44.78 µM, the kcat worked out at 0.96 ± 0.24 s⁻¹ and the specificity constant (kcat/Km) amounted to 14000 M⁻¹ s⁻¹.

B2: TrSqrF; SqrF WT (Thiocapsa roseopersicina) (protein)
chain: MHRITIVGSGFAGLTAVQSIRRTAPDAEITLVSNKAEFIYYPGLIWVPCGIRSGEDLRIDLRPFFKRMRVRHLAGEATGLSPDGRTLETTAGPVENDGLVIGSGGRFIKKLPGIEHAITPCEGIAAAEAIRDRVKAMDGGSIAMGFAGNPNEPSSMRGGPIFEFIFGMDSQLRKEGRRDRFRLHFFTPAERPGNRLGPKAVDGILAEMKRRGIETHLGHKLKSFSESKVTTEAGEFDADLILFMPGMTGNTWFDNTDLPRSPGGLLQADAHCRVPGYERVYVAGDSGSFPGPDWMPKQAHMADLQARAAVKNLLAELQGRAPSETFKVELVCIVDANDTGMLVARTEKNNWVLPSTRFFHWMKLGFEWWYLRPYR
B2: in the data set “purified protein [1]”, the Km is 24.47 ± 6.42 µM, the kcat is 8.37 ± 0.33 s⁻¹ and the specificity constant (kcat/Km) was found to be 342000 M⁻¹ s⁻¹. Besides, in “purified protein [2]”, the Km is 27.39 ± 2.47 µM, the catalytic constant (kcat) came to 1.25 ± 0.04 s⁻¹ and the kcat/Km was 46000 M⁻¹ s⁻¹.

B3: TrSqrF; SqrF WT (Thiocapsa roseopersicina; F366Y) (protein)
chain: MHRITIVGSGFAGLTAVQSIRRTAPDAEITLVSNKAEFIYYPGLIWVPCGIRSGEDLRIDLRPFFKRMRVRHLAGEATGLSPDGRTLETTAGPVENDGLVIGSGGRFIKKLPGIEHAITPCEGIAAAEAIRDRVKAMDGGSIAMGFAGNPNEPSSMRGGPIFEFIFGMDSQLRKEGRRDRFRLHFFTPAERPGNRLGPKAVDGILAEMKRRGIETHLGHKLKSFSESKVTTEAGEFDADLILFMPGMTGNTWFDNTDLPRSPGGLLQADAHCRVPGYERVYVAGDSGSFPGPDWMPKQAHMADLQARAAVKNLLAELQGRAPSETFKVELVCIVDANDTGMLVARTEKNNWVLPSTRFFHWMKLGYEWWYLRPYR
In the case of B3, in “purified protein [1]”, the Michaelis constant (Km) stood at 10.03 ± 1.39 µM, the catalytic constant (kcat) is 3.17 ± 0.82 s⁻¹ and the specificity constant (kcat/Km) stood at 316000 M⁻¹ s⁻¹. In the data set “purified protein [2]”, the Michaelis-Menten constant (Km) turned out to be 79.30 ± 14.68 µM, the kcat is 0.57 ± 0.08 s⁻¹ and the kcat/Km amounted to 7000 M⁻¹ s⁻¹.

B4: TrSqrF; SqrF WT (Thiocapsa roseopersicina; I333F) (protein)
chain: MHRITIVGSGFAGLTAVQSIRRTAPDAEITLVSNKAEFIYYPGLIWVPCGIRSGEDLRIDLRPFFKRMRVRHLAGEATGLSPDGRTLETTAGPVENDGLVIGSGGRFIKKLPGIEHAITPCEGIAAAEAIRDRVKAMDGGSIAMGFAGNPNEPSSMRGGPIFEFIFGMDSQLRKEGRRDRFRLHFFTPAERPGNRLGPKAVDGILAEMKRRGIETHLGHKLKSFSESKVTTEAGEFDADLILFMPGMTGNTWFDNTDLPRSPGGLLQADAHCRVPGYERVYVAGDSGSFPGPDWMPKQAHMADLQARAAVKNLLAELQGRAPSETFKVELVCFVDANDTGMLVARTEKNNWVLPSTRFFHWMKLGFEWWYLRPYR
For B4, in “purified protein [1]”, the Km turned out to be 13.98 ± 7.20 µM, the catalytic constant (kcat) stood at 1.2 ± 0.48 s⁻¹ and the kcat/Km turned out to be 86000 M⁻¹ s⁻¹. Further, in the data set “purified protein [2]”, the Km turned out to be 102.7 ± 69.9 µM, the turnover number (kcat) was 0.72 ± 0.21 s⁻¹ and the specificity constant (kcat/Km) was determined as 7000 M⁻¹ s⁻¹.

B5: TrSqrF; SqrF WT (Thiocapsa roseopersicina; F366A) (protein)
chain: MHRITIVGSGFAGLTAVQSIRRTAPDAEITLVSNKAEFIYYPGLIWVPCGIRSGEDLRIDLRPFFKRMRVRHLAGEATGLSPDGRTLETTAGPVENDGLVIGSGGRFIKKLPGIEHAITPCEGIAAAEAIRDRVKAMDGGSIAMGFAGNPNEPSSMRGGPIFEFIFGMDSQLRKEGRRDRFRLHFFTPAERPGNRLGPKAVDGILAEMKRRGIETHLGHKLKSFSESKVTTEAGEFDADLILFMPGMTGNTWFDNTDLPRSPGGLLQADAHCRVPGYERVYVAGDSGSFPGPDWMPKQAHMADLQARAAVKNLLAELQGRAPSETFKVELVCIVDANDTGMLVARTEKNNWVLPSTRFFHWMKLGAEWWYLRPYR
For B5, in the data set “purified protein [1]”, the Km was 9.38 ± 1.97 µM, the catalytic constant (kcat) was determined as 1.97 ± 0.28 s⁻¹ and the catalytic efficiency (kcat/Km) stood at 210000 M⁻¹ s⁻¹. Further, in the data set “purified protein [2]”, the Km turned out to be 46.19 ± 2.53 µM, the kcat came to 0.26 ± 0.01 s⁻¹ and the specificity constant (kcat/Km) was determined as 6000 M⁻¹ s⁻¹.

B6: TrSqrF; SqrF WT (Thiocapsa roseopersicina; V331F) (protein)
chain: MHRITIVGSGFAGLTAVQSIRRTAPDAEITLVSNKAEFIYYPGLIWVPCGIRSGEDLRIDLRPFFKRMRVRHLAGEATGLSPDGRTLETTAGPVENDGLVIGSGGRFIKKLPGIEHAITPCEGIAAAEAIRDRVKAMDGGSIAMGFAGNPNEPSSMRGGPIFEFIFGMDSQLRKEGRRDRFRLHFFTPAERPGNRLGPKAVDGILAEMKRRGIETHLGHKLKSFSESKVTTEAGEFDADLILFMPGMTGNTWFDNTDLPRSPGGLLQADAHCRVPGYERVYVAGDSGSFPGPDWMPKQAHMADLQARAAVKNLLAELQGRAPSETFKVELFCIVDANDTGMLVARTEKNNWVLPSTRFFHWMKLGFEWWYLRPYR
As for B6, in “purified protein [1]”, the Km came to 12.33 ± 0.86 µM, the turnover number (kcat) was 3.64 ± 1.06 s⁻¹ and the specificity constant (kcat/Km) worked out at 295000 M⁻¹ s⁻¹. Moreover, in the data set “purified protein [2]”, the Km was 40.23 ± 7.36 µM, the kcat was 0.72 ± 0.02 s⁻¹ and the catalytic efficiency (kcat/Km) stood at 18000 M⁻¹ s⁻¹.

B7: TrSqrF; SqrF WT (Thiocapsa roseopersicina; V331A) (protein)
chain: MHRITIVGSGFAGLTAVQSIRRTAPDAEITLVSNKAEFIYYPGLIWVPCGIRSGEDLRIDLRPFFKRMRVRHLAGEATGLSPDGRTLETTAGPVENDGLVIGSGGRFIKKLPGIEHAITPCEGIAAAEAIRDRVKAMDGGSIAMGFAGNPNEPSSMRGGPIFEFIFGMDSQLRKEGRRDRFRLHFFTPAERPGNRLGPKAVDGILAEMKRRGIETHLGHKLKSFSESKVTTEAGEFDADLILFMPGMTGNTWFDNTDLPRSPGGLLQADAHCRVPGYERVYVAGDSGSFPGPDWMPKQAHMADLQARAAVKNLLAELQGRAPSETFKVELACIVDANDTGMLVARTEKNNWVLPSTRFFHWMKLGFEWWYLRPYR
Turning to B7, in the data set “purified protein [1]”, the Michaelis-Menten constant (Km) turned out to be 18.99 ± 6.10 µM, the kcat worked out at 2.47 ± 0.33 s⁻¹ and the kcat/Km came out at 130000 M⁻¹ s⁻¹.
